The target of one test is HLA-A*01:01. Nature of the test: IEDB peptide-MHC binding, purified MHC/direct/fluorescence; filed as Kd, often an IC50 or EC50 that approximates it; ≥ and ≤ were set here for values at or beyond the usual limits of such assays.
Another test concerns the target HLA-A*02:01. The test is described as above.
The target in the next test is HLA-A*03:01. The description is as above.
In a further test the target is HLA-A*24:02. Described as above.
A further test has as its target HLA-A*26:01. Described as above.
The target in a further test is HLA-A*31:01. Described as above.
The next test concerns the target HLA-A*69:01. The test is described as above.
The target in the next test is HLA-B*07:02. The test is described as above.
Another test deals with HLA-B*08:02. The test is described as above.
Another test addresses HLA-B*15:01. Described as above.
A further test concerns the target HLA-B*15:09. Described as above.
For a further test, the target named is HLA-B*27:05. Described as above.
The target in test [1] is HLA-B*40:01. The description is as above.
The target in test [2] is HLA-B*44:02. Described as above.
The target in another test is HLA-B*46:01. The test is described as above.
For the next test, the target named is HLA-B*58:01. The description is as above.
The target of a further test is HLA-A*24:03. The description is as above. Conditions: source organism: Influenza A virus (A/camel/Mongolia/1982(H1N1)).
In a further test the target is HLA-B*08:01. The test is described as above.
In test [3] the target is HLA-B*18:01. Described as above.
A further test addresses HLA-A*11:01. Described as above.
The target of test [4] is HLA-B*18:01. Nature of the test: IEDB peptide-MHC binding, purified MHC/competitive/radioactivity; filed as Kd, often an IC50 or EC50 that approximates it; ≥ and ≤ were set here for values at or beyond the usual limits of such assays.
Test [5] deals with HLA-B*40:01. The description is as above.
For a further test, the target named is HLA-B*40:02. The description is as above.
Test [6] concerns the target HLA-B*44:02. The description is as above.
Another test concerns the target HLA-B*44:03. Described as above.
The target of another test is HLA-B*45:01. Described as above.
[7] abbreviates: source organism: Vibrio parahaemolyticus.
[8] abbreviates: source organism: Vibrio vulnificus CMCP6.
Where [9] appears, read: source organism: Influenza A virus (A/camel/Mongolia/1982(H1N1)).
[10] abbreviates: source organism: Influenza A virus (A/Puerto Rico/8/34/Mount Sinai(H1N1)).
Setting [11] is: source organism: Giardia lamblia ATCC 50803.
Where [12] appears, read: source organism: Mammarenavirus juninense.
Setting [13] is: source organism: SARS coronavirus Tor2.
[14] abbreviates: source organism: Lymphocytic choriomeningitis virus (strain Armstrong).
[15] abbreviates: source organism: Influenza A virus (A/mallard/NZ/1/97(H5N2)).
Setting [16] is: source organism: Influenza A virus(A/swine/Shandong/fZC/2003(H9N2)).
Setting [17] is: source organism: Influenza A virus (A/chicken/Hubei/wk/1997(H5N1)).
[18] abbreviates: source organism: Influenza A virus(A/swine/Shandong/fNY/2003(H9N2)).

Bounds are passed on as bounds.

ASEELMDKY: the Kd with HLA-A*01:01 (setting [7]) was 0.0272 µM; in the test with HLA-A*02:01 (setting [7]) it was ≥ 20 µM; with HLA-A*03:01 (setting [7]), ≥ 20 µM; with HLA-A*24:02 (setting [7]), ≥ 20 µM; in the test with HLA-A*26:01 (setting [8]), ≥ 20 µM; in the test with HLA-A*31:01 (setting [7]) it was ≥ 20 µM. For the same sequence, the Kd in the test with HLA-A*69:01 (setting [7]), with HLA-B*07:02 (setting [7]), with HLA-B*08:02 (setting [8]), with HLA-B*15:01 (setting [7]), with HLA-B*15:09 (setting [8]) and with HLA-B*27:05 (setting [7]) was ≥ 20 µM each time. Moreover, the Kd in the test with HLA-B*40:01 [1] (setting [7]), in the test with HLA-B*44:02 [2] (setting [7]), with HLA-B*46:01 (setting [7]) and with HLA-B*58:01 (setting [7]) was ≥ 20 µM throughout.

With KFFPSSSYR, the Kd was ≥ 20 µM with HLA-A*01:01 (setting [9]); ≥ 20 µM with HLA-A*02:01 (setting [9]); 0.184 µM with HLA-A*03:01 (setting [10]); ≥ 20 µM with HLA-A*24:02 (setting [9]); ≥ 20 µM with HLA-A*24:03; ≥ 20 µM with HLA-A*69:01 (setting [9]). Moreover, the Kd with HLA-B*07:02 (setting [9]), in the test with HLA-B*08:01 (setting [9]), with HLA-B*15:01 (setting [9]), with HLA-B*15:09 (source organism: Influenza A virus H3N2), in the test with HLA-B*18:01 [3] (setting [9]) and with HLA-B*27:05 (setting [9]) was ≥ 20 µM in each case. For the same sequence, the Kd in the test with HLA-B*40:01 [1] (setting [9]), with HLA-B*44:02 [2] (setting [9]), with HLA-B*46:01 (setting [9]) and in the test with HLA-B*58:01 (setting [9]) was ≥ 20 µM in each case.

As for YIASIFMPR, the Kd with HLA-A*01:01 (setting [11]) is ≥ 20 µM; with HLA-A*03:01 (setting [11]), 0.335 µM; with HLA-A*11:01 (setting [11]) it was 0.0448 µM; in the test with HLA-A*24:02 (setting [11]), ≥ 20 µM; with HLA-A*31:01 (setting [11]), 0.011 µM; with HLA-A*69:01 (setting [11]), ≥ 20 µM. Further, the Kd with HLA-B*07:02 (setting [11]), in the test with HLA-B*08:02 (setting [11]), with HLA-B*15:01 (setting [11]), with HLA-B*15:09 (setting [11]), in the test with HLA-B*18:01 [3] (setting [11]) and with HLA-B*27:05 (setting [11]) was ≥ 20 µM throughout. The dissociation constant (Kd) in the test with HLA-B*40:01 [1] (setting [11]), with HLA-B*44:02 [2] (setting [11]) and in the test with HLA-B*58:01 (setting [11]) was ≥ 20 µM in each case.

For the sequence LESLWAPFGV, the Kd in the test with HLA-B*18:01 [4] (setting [12]) was 0.607 µM; in the test with HLA-B*40:01 [5] (setting [12]) it was ≥ 24.6 µM; in the test with HLA-B*40:02 (setting [12]) it was 0.159 µM; with HLA-B*44:02 [6] (setting [12]), ≥ 31.8 µM; with HLA-B*44:03 (setting [12]) it was ≥ 56.4 µM; with HLA-B*45:01 (setting [12]) it was 16.1 µM.

With AEAAVKPLLA, the dissociation constant Kd was ≥ 55.5 µM with HLA-B*18:01 [4] (setting [13]); 0.164 µM with HLA-B*40:01 [5] (setting [13]); ≥ 20.1 µM in the test with HLA-B*40:02 (setting [13]); 0.105 µM in the test with HLA-B*44:02 [6] (setting [13]); 0.0356 µM in the test with HLA-B*44:03 (setting [13]); 0.0106 µM with HLA-B*45:01 (setting [13]).

Take IEVALRTLL: the Kd in the test with HLA-B*18:01 [4] (setting [14]) was found to be 0.0772 µM; with HLA-B*40:01 [5] (setting [14]), 0.0644 µM; with HLA-B*40:02 (setting [14]), 0.0549 µM; with HLA-B*44:02 [6] (setting [14]), 14.6 µM; with HLA-B*44:03 (setting [14]) it was 3.73 µM; with HLA-B*45:01 (setting [14]), 18.3 µM.

As for KDTPGGYCL, the Kd with HLA-B*18:01 [4] (setting [12]) is ≥ 61 µM; with HLA-B*40:01 [5] (setting [12]) it was 11.9 µM; in the test with HLA-B*40:02 (setting [12]), 3.48 µM; with HLA-B*44:02 [6] (setting [12]), ≥ 77.9 µM; with HLA-B*44:03 (setting [12]), ≥ 78.1 µM; with HLA-B*45:01 (setting [12]), 18.3 µM.

As to VETVSLAGSY, the Kd is 1.68 µM in the test with HLA-B*18:01 [4] (setting [13]); 17.7 µM in the test with HLA-B*40:01 [5] (setting [13]); ≥ 70.8 µM in the test with HLA-B*40:02 (setting [13]); 3.22 µM in the test with HLA-B*44:02 [6] (setting [13]); 1.29 µM with HLA-B*44:03 (setting [13]); 11.7 µM with HLA-B*45:01 (setting [13]).

Regarding AEYKLQQGTF, the Kd was 7.04 µM with HLA-B*18:01 [4] (setting [13]); 4.58 µM with HLA-B*40:01 [5] (setting [13]); 0.02 µM with HLA-B*40:02 (setting [13]); 0.0288 µM with HLA-B*44:02 [6] (setting [13]); 0.0896 µM with HLA-B*44:03 (setting [13]); 0.0623 µM in the test with HLA-B*45:01 (setting [13]).

With PEFYEAMYT, the Kd with HLA-B*18:01 [4] (setting [13]) was ≥ 52.4 µM; with HLA-B*40:01 [5] (setting [13]) it was 3.74 µM; with HLA-B*40:02 (setting [13]), 5.05 µM; in the test with HLA-B*44:02 [6] (setting [13]), 17.4 µM; with HLA-B*44:03 (setting [13]) it was 4.91 µM; with HLA-B*45:01 (setting [13]), 3.4 µM.

With SEQSLRLVDA, the Kd with HLA-B*18:01 [4] (setting [13]) turned out to be 3.61 µM; with HLA-B*40:01 [5] (setting [13]) it was 18.7 µM; with HLA-B*40:02 (setting [13]), 0.47 µM; in the test with HLA-B*44:02 [6] (setting [13]), 0.0916 µM; in the test with HLA-B*44:03 (setting [13]) it was 0.436 µM; with HLA-B*45:01 (setting [13]), 0.00586 µM.

IAGFIEGGW: the Kd with HLA-A*01:01 (setting [15]), with HLA-A*02:01 (setting [15]), in the test with HLA-A*03:01 (setting [15]), in the test with HLA-A*11:01 (setting [15]), with HLA-A*24:02 (setting [15]) and with HLA-A*26:01 (setting [16]) was ≥ 20 µM in each case. The Kd in the test with HLA-A*31:01 (setting [15]), with HLA-A*69:01 (setting [15]), with HLA-B*07:02 (setting [15]), with HLA-B*08:01 (setting [15]), with HLA-B*08:02 (setting [16]) and with HLA-B*15:01 (setting [15]) was ≥ 20 µM throughout. The Kd in the test with HLA-B*15:09 (setting [16]) is ≥ 20 µM; with HLA-B*27:05 (setting [15]), ≥ 20 µM; with HLA-B*40:01 [1] (setting [15]), ≥ 20 µM; with HLA-B*44:02 [2] (setting [15]), ≥ 20 µM; in the test with HLA-B*46:01 (setting [15]) it was ≥ 20 µM; with HLA-B*58:01 (setting [15]), 0.0654 µM.

EELSMMYESL: the Kd in the test with HLA-B*18:01 [4] (setting [12]) amounted to 1.34 µM; with HLA-B*40:01 [5] (setting [12]), 0.899 µM; with HLA-B*40:02 (setting [12]) it was 0.106 µM; in the test with HLA-B*44:02 [6] (setting [12]), 1.48 µM; in the test with HLA-B*44:03 (setting [12]), 1.85 µM; in the test with HLA-B*45:01 (setting [12]), 1.9 µM.

In the case of NPALRMKWM, the dissociation constant Kd with HLA-A*01:01 (setting [17]), with HLA-A*02:01 (setting [17]), with HLA-A*03:01 (setting [17]), with HLA-A*11:01 (setting [17]), with HLA-A*24:02 (setting [17]) and in the test with HLA-A*26:01 (setting [18]) was ≥ 20 µM each time. The Kd is ≥ 20 µM with HLA-A*31:01 (setting [17]); ≥ 20 µM with HLA-A*69:01 (setting [17]); 0.091 µM with HLA-B*07:02 (setting [10]); 1.41 µM with HLA-B*08:01 (setting [10]); ≥ 20 µM in the test with HLA-B*08:02 (setting [18]); ≥ 20 µM with HLA-B*15:01 (setting [17]). Besides, the Kd in the test with HLA-B*15:09 (setting [18]), with HLA-B*18:01 [3] (setting [17]), with HLA-B*27:05 (setting [17]), with HLA-B*40:01 [1] (setting [17]), with HLA-B*44:02 [2] (setting [17]) and in the test with HLA-B*46:01 (setting [17]) was ≥ 20 µM each time. In the test with HLA-B*58:01 (setting [17]), the Kd was ≥ 20 µM.

One may read the Kd as the concentration at which binding is half-saturated.

Values taken from the Immune Epitope Database (IEDB).
